From PMC12442453, “An asymmetric tetrabody is a potent and efficacious agonist of the erythropoietin receptor in vitro and in vivo” (Protein Science : A Publication of the Protein Society, 2025) come the findings set out here.

One experiment concerns the target T1, His-tagged ECD of EPHB4 (Homo sapiens (assumed), UniProt P54760).
T1 construct: receptor tyrosine kinase EPHB4, ectodomain
The experiment can be described thus: ELISA; His-tagged ECDs of EPOR, CD131 or EPHB4 tested against Db-Fc protein. The following applies: both partners purified.

The target of the next experiment is T2, His-tagged ECD of CD131 (Homo sapiens (assumed), UniProt P32927).
T2 construct: β-common cytokine receptor (β-CR, CD131), ectodomain; also called β-common cytokine receptor; β-CR
T2 sequence (P32927 17-443): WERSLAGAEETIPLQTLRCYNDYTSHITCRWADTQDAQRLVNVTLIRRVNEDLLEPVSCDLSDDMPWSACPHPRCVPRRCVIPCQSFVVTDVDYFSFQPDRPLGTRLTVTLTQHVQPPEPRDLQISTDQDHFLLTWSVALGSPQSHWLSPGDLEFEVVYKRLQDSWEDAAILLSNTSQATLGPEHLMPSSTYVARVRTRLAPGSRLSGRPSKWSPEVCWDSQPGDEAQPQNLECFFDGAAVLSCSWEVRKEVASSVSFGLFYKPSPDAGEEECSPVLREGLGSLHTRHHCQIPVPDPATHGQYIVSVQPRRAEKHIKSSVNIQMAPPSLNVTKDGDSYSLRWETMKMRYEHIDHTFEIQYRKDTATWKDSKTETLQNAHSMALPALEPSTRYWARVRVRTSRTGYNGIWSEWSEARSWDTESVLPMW
The experiment is described as above. The following applies: both partners purified.

In experiment [1] the target is human EPOR, endogenous on TF-1 cells (Homo sapiens (TF-1 cells), UniProt P19235). As to the kind of experiment: cell-based or functional assay.
Chain of human EPOR, endogenous on TF-1 cells (P19235 25-508): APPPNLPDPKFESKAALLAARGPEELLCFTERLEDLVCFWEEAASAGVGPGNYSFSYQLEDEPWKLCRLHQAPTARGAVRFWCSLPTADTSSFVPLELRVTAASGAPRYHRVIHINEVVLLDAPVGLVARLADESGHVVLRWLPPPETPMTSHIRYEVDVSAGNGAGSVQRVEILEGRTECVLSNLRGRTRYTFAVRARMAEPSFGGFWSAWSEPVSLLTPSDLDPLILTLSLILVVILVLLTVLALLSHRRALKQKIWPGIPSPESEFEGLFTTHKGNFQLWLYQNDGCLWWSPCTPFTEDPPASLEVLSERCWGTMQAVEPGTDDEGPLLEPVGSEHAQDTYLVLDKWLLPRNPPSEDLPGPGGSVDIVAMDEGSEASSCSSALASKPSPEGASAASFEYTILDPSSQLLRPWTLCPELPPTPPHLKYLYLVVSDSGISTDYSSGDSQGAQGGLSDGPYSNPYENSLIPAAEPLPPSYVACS
Experiment [2] has as its target T3, human EPOR ectodomain (ECD) fused to a human Fc domain (EPOR-Fc) (human, UniProt P19235).
T3 construct: erythropoietin receptor (EPOR), human, ectodomain; Results and legends name EPOR-Fc as the immobilised protein of the ELISA and BLI experiments; the methods describe His-EPOR instead; also called human EPOR-Fc
As to the kind of experiment: ELISA; EPOR-Fc (human or mouse) immobilised by results and legends, Db-Fc or VL–VH protein in solution (single point and serial dilutions), 1 h room temperature, PBST, anti-Fc-HRP; apparent affinities; the methods name His-EPOR as the coated protein. The following applies: both partners purified.

For experiment [3], the target named is T3, human EPOR ectodomain (ECD) fused to a …. The experiment can be described thus: BLI; results and legends: EPOR-Fc immobilised, Db-Fc in solution, 600 s association, 600 s dissociation, global 1:1 fit; methods: Abs captured on anti-human Fc sensors, His-EPOR in solution in 3-fold dilutions from 100 nM, 25°C, PBS 0.05% Tween 20. The following applies: both partners purified.

T3 sequence (P19235 25-250): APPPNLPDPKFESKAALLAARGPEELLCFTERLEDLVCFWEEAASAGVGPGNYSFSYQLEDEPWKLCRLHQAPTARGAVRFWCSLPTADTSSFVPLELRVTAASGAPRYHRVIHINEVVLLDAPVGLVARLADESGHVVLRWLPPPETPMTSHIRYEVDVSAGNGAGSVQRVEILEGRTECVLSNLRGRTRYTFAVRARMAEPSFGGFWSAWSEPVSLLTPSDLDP
T1 sequence (P54760 16-539): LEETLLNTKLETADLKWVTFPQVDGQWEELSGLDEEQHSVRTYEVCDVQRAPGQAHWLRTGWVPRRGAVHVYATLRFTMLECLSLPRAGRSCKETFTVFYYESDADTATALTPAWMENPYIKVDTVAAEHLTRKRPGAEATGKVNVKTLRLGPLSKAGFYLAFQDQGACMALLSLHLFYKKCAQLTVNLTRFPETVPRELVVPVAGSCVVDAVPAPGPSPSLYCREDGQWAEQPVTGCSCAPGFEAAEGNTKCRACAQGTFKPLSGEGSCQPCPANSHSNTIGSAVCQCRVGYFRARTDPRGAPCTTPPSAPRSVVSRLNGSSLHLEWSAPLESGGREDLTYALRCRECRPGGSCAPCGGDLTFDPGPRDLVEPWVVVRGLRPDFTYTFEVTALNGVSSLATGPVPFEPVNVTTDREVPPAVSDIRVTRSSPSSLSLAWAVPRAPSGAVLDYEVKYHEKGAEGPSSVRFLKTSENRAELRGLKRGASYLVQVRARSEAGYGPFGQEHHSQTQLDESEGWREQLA

B1: Db-Fc 1 (Fc fusion)
VH: EVQLVESGGGLVQPGGSLRLSCAASGFNLYSYYIHWVRQAPGKGLEWVASISPYYSYTYYADSVKGRFTISADTSKNTAYLQMNSLRAEDTAVYYCARHGYGAMDYWGQGTLVTVSS
VL: DIQMTQSPSSLSASVGDRVTITCRASQSVSSAVAWYQQKPGKAPKLLIYSASSLYSGVPSRFSGSRSGTDFTLTISSLQPEDFATYYCQQSSYSLITFGQGTKVEIK
notes: VL domain of clone 1 (human framework of the Db library); Gly5 linker between VL and VH; VH domain of clone 1; IMGT numbering, heavy chain; Diabody-Fc fusion (VL-Gly5-VH-Fc); Protein-A purified preparation: mainly the dimeric Db-Fc, with a minor earlier-eluting SEC peak (putative Tb-Fc2); also called Db 1; VL–VH 1; source: Expi293, transient expression, purified (rProtein-A); not shown: Fc, …
For the molecule B1, the binding result with His-tagged ECD of EPHB4 and with His-tagged ECD of CD131 was “no binding” each time. In addition, the “UT-7/Epo cell proliferation (ATP/luciferase luminescence), EC50” value in experiment [1] worked out at 0.2 nM. Further, the EC50 in experiment [2] was 1.5 nM. This molecule also displayed a Kd in experiment [3] of 1.5 nM.

B2: Db-Fc 1.1 (Fc fusion)
VH: EVQLVESGGGLVQPGGSLRLSCAASGFNLRSYYMHWVRQAPGKGLEWVASISPYYSYTYYADSVKGRFTISADTSKNTAYLQMNSLRAEDTAVYYCARHGYGAMDYWGQGTLVTVSS
VL: DIQMTQSPSSLSASVGDRVTITCRASQSVSSAVAWYQQKPGKAPKLLIYSASSLYSGVPSRFSGSRSGTDFTLTISSLQPEDFATYYCQQSSYSLITFGQGTKVEIK
notes: VL domain of variant 1.1; Gly5 linker between VL and VH; VH domain of variant 1.1; Diabody-Fc fusion; >99% eluted as the Db-Fc form by SEC; Called Db-Fcmix 1.1 where not fractionated by preparative SEC; also called variant 1.1; Db-Fcmix 1.1; source: Expi293, transient expression, purified (rProtein-A); not shown: Fc, C-terminal, kept
As for B2, the Kd in experiment [3] came to 5 nM.

B3: Db-Fc 1.3 (Fc fusion)
VH: EVQLVESGGGLVQPGGSLRLSCAASGFNLRSYYMHWVRQAPGKGLEWVASISPHYGYTYYADSVKGRFTISADTSKNTAYLQMNSLRAEDTAVYYCARHGYSAMDYWGQGTLVTVSS
VL: DIQMTQSPSSLSASVGDRVTITCRASQSVSSAVAWYQQKPGKAPKLLIYSASSLYSGVPSRFSGSRSGTDFTLTISSLQPEDFATYYCQQSSDSLFTFGQGTKVEIK
notes: VL domain of variant 1.3; derived from the library on Db 1.1 (PDB 9NWU); Gly5 linker between VL and VH; VH domain of variant 1.3; the fraction is named in the readout of each functional row; also called variant 1.3; VL–VH 1.3; source: Expi293, transient expression, purified (rProtein-A); fractions by preparative SEC; not shown: Fc, C-terminal, kept
In the case of B3, the binding result in experiment [3] is listed as “binds”.

B4: Db-Fc 1.2 (Fc fusion)
VH: EVQLVESGGGLVQPGGSLRLSCAASGFNLRSYYMHWVRQAPGKGLEWVASIAPYHGYTYYADSVKGRFTISADTSKNTAYLQMNSLRAEDTAVYYCARHGYGALDYWGQGTLVTVSS
VL: DIQMTQSPSSLSASVGDRVTITCRASQSVSSAVAWYQQKPGKAPKLLIYSASSLYSGVPSRFSGSRSGTDFTLTISSLQPEDFATYYCQQSSNFLITFGQGTKVEIK
notes: VL domain of variant 1.2; Gly5 linker between VL and VH; VH domain of variant 1.2; Diabody-Fc fusion; nearly homogeneous Db-Fc peak by SEC; In vivo used both as unfractionated mixture and as the Db-Fc fraction from preparative SEC; also called variant 1.2; Db-Fcmix 1.2; source: Expi293, transient expression, purified (rProtein-A); not shown: Fc, C-terminal, kept
In the case of B4, in experiment [3], binding was characterised by a dissociation constant (Kd) of 1.8 nM.

B5: Db-Fc 2 (Fc fusion)
VH: EVQLVESGGGLVQPGGSLRLSCAASGFNLSSYYIHWVRQAPGKGLEWVASISPYYSYTYYADSVKGRFTISADTSKNTAYLQMNSLRAEDTAVYYCARHSYAALDYWGQGTLVTVSS
VL: DIQMTQSPSSLSASVGDRVTITCRASQSVSSAVAWYQQKPGKAPKLLIYSASSLYSGVPSRFSGSRSGTDFTLTISSLQPEDFATYYCQQAYWPITFGQGTKVEIK
notes: VL domain of clone 2 (human framework of the Db library); Gly5 linker between VL and VH; VH domain of clone 2; Diabody-Fc fusion (VL-Gly5-VH-Fc); Protein-A purified preparation: mainly the dimeric Db-Fc, with a minor earlier-eluting SEC peak; also called Db 2; VL–VH 2; source: Expi293, transient expression, purified (rProtein-A); not shown: Fc, C-terminal, kept
Take B5: the binding result in the experiment with His-tagged ECD of EPHB4 and in the experiment with His-tagged ECD of CD131 was “no binding” throughout. In addition, the “UT-7/Epo cell proliferation (ATP/luciferase luminescence), EC50” value in experiment [1] stood at 0.4 nM. For the same molecule, the EC50 in experiment [2] stood at 0.6 nM. In experiment [3], this molecule returned a Kd of 5.1 nM.
